# Measured values taken from PMC2756588.
# T1: Abp1, P15891
# T1 sequence (P15891 535-592, looked up): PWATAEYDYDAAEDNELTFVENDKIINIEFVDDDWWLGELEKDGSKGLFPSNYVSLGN
# T2: Bbc1, P47068
# T2 sequence (P47068 1-78, looked up): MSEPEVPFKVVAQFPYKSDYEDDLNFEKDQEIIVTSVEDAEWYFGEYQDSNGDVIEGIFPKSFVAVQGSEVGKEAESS
# T3: Boi1, P38041
# T3 sequence (P38041 1-86, looked up): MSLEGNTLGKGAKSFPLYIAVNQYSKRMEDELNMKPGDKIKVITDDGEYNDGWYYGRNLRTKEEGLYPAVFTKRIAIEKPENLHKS
# T4: Boi2, P39969
# T4 sequence (P39969 32-116, looked up): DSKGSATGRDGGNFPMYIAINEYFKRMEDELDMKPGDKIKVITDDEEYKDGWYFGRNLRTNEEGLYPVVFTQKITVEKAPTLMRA
# T5: Bud14, P27637
# T5 sequence (P27637 247-328, looked up): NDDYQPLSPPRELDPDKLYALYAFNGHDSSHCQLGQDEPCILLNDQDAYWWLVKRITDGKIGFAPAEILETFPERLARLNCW
# T6: Bzz1-1, P38822
# T6 sequence (P38822 478-572, looked up): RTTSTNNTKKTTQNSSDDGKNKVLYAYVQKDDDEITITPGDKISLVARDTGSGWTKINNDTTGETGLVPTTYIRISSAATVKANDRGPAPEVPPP
# T7: Bzz1-2, P38822
# T7 sequence (P38822 568-633, looked up): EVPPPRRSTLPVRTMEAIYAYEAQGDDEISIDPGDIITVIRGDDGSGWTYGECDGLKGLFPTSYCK
# T8: Cdc25, P04821
# T8 sequence (P04821 50-136, looked up): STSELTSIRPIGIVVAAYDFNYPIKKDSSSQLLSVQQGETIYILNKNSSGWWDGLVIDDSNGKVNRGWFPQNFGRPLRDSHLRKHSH
# T9: Cyk3, Q07533
# T9 sequence (Q07533 1-83, looked up): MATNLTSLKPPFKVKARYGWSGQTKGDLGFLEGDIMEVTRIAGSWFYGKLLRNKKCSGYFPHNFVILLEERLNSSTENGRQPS
# T10: Fus1, P11710
# T10 sequence (P11710 432-512, looked up): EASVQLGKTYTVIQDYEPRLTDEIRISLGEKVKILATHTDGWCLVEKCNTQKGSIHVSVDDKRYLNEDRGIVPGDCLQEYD
# T11: Hof1, Q05080
# T11 sequence (Q05080 590-669, looked up): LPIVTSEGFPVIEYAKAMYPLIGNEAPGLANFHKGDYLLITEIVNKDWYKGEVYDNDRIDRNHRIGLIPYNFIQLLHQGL
# T12: Hse1, P38753
# T12 sequence (P38753 208-285, looked up): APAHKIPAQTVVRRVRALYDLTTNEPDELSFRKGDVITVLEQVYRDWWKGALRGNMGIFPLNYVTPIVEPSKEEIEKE
# T13: Lsb1, P53281
# T13 sequence (P53281 45-122, looked up): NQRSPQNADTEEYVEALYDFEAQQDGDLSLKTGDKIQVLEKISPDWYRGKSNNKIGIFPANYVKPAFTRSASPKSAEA
# T14: Lsb3, P43603
# T14 sequence (P43603 385-451, looked up): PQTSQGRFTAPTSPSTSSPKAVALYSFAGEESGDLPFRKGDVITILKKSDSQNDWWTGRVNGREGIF
# T15: Lsb4, P32793
# T15 sequence (P32793 402-468, looked up): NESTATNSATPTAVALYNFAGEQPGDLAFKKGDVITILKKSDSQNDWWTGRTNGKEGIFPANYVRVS
# T16: Myo5, Q04439
# T16 sequence (Q04439 1072-1160, looked up): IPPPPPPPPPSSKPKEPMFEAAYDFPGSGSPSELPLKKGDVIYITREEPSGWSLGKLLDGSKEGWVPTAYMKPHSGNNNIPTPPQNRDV
# T17: Nbp2, Q12163
# T17 sequence (Q12163 103-180, looked up): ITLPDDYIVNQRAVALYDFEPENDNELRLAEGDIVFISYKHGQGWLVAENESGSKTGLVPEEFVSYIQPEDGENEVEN
# T18: Pex13, P80667
# T18 sequence (P80667 295-386, looked up): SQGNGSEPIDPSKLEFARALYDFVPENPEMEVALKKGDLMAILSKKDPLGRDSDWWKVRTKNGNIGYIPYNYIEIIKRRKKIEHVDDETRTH
# T19: Pin3, Q06449
# T19 sequence (Q06449 53-122, looked up): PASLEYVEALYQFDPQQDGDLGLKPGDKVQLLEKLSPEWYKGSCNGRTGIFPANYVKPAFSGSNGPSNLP
# T20: Sla1-2, P32790
# T20 sequence (P32790 60-140, looked up): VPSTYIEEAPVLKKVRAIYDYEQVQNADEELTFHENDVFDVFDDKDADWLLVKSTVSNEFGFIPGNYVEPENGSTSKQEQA
# T21: Sla1-3, P32790
# T21 sequence (P32790 344-424, looked up): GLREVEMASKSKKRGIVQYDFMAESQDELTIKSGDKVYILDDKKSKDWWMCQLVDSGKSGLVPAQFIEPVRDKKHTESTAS
# Legend:
# Experiment in all cases: SPOT array
# [1] = molecular target: T1, Abp1, P15891; settings: median of control spots 935
# [2] = molecular target: T2, Bbc1, P47068; settings: median of control spots 796
# [3] = molecular target: Bem1-1, P29366; settings: median of control spots 4282
# Bem1-1, P29366, sequence (P29366 55-141): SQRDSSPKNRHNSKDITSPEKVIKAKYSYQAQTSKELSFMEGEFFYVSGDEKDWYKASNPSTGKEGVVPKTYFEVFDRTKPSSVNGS
# [4] = molecular target: Bem1-2, P29366; settings: median of control spots 4347
# Bem1-2, P29366, sequence (P29366 139-227): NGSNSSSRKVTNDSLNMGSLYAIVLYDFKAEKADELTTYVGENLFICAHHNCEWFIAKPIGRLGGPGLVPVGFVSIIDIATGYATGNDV
# [5] = molecular target: T3, Boi1, P38041; settings: median of control spots 1162
# [6] = molecular target: T4, Boi2, P39969; settings: median of control spots 1161
# [7] = molecular target: T5, Bud14, P27637; settings: median of control spots 956
# [8] = molecular target: T6, Bzz1-1, P38822; settings: median of control spots 4446
# [9] = molecular target: T7, Bzz1-2, P38822; settings: median of control spots 4538
# [10] = molecular target: T8, Cdc25, P04821; settings: median of control spots 969
# [11] = molecular target: T9, Cyk3, Q07533; settings: median of control spots 1451
# [12] = molecular target: T10, Fus1, P11710; settings: median of control spots 1200
# [13] = molecular target: GST; settings: median of control spots 978
# [14] = molecular target: T11, Hof1, Q05080; settings: median of control spots 4086
# [15] = molecular target: T12, Hse1, P38753; settings: median of control spots 1727
# [16] = molecular target: T13, Lsb1, P53281; settings: median of control spots 388
# [17] = molecular target: T14, Lsb3, P43603; settings: median of control spots 406
# [18] = molecular target: T15, Lsb4, P32793; settings: median of control spots 397
# [19] = molecular target: Myo3, P36006; settings: median of control spots 468
# [20] = molecular target: T16, Myo5, Q04439; settings: median of control spots 471
# [21] = molecular target: T17, Nbp2, Q12163; settings: median of control spots 357
# [22] = molecular target: T18, Pex13, P80667; settings: median of control spots 1341
# [23] = molecular target: T19, Pin3, Q06449; settings: median of control spots 2171
# [24] = molecular target: Rvs167, P39743; settings: median of control spots 2707
# Rvs167, P39743, sequence (P39743 419-482): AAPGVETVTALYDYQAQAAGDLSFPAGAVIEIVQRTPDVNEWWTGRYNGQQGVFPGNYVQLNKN
# [25] = molecular target: Sho1, P40073; settings: median of control spots 1148
# Sho1, P40073, sequence (P40073 287-367): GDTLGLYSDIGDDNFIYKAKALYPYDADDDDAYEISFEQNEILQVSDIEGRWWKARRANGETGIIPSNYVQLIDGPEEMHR
# [26] = molecular target: T20, Sla1-2, P32790; settings: median of control spots 712
# [27] = molecular target: T21, Sla1-3, P32790; settings: median of control spots 5475
Binder,SPOT intensity [1],SPOT intensity [2],SPOT intensity [3],SPOT intensity [4],SPOT intensity [5],SPOT intensity [6],SPOT intensity [7],SPOT intensity [8],SPOT intensity [9],SPOT intensity [10],SPOT intensity [11],SPOT intensity [12],SPOT intensity [13],SPOT intensity [14],SPOT intensity [15],SPOT intensity [16],SPOT intensity [17],SPOT intensity [18],SPOT intensity [19],SPOT intensity [20],other results
PIVPSSPAPPLPLSG,0,0,0,0,0,0,0,1,0,0,0,1,0,0,0,0,0,0,399,434,SPOT intensity [21]: 0; SPOT intensity [22]: 0; SPOT intensity [23]: 0; SPOT intensity [24]: 0; SPOT intensity [25]: 0; SPOT intensity [26]: 0; SPOT intensity [27]: 0
PSPSSSPPPIPKTAN,0,0,1,0,1,1,0,1,3,1,0,0,1,0,0,0,0,0,413,300,SPOT intensity [21]: 0; SPOT intensity [22]: 0; SPOT intensity [23]: 0; SPOT intensity [24]: 0; SPOT intensity [25]: 0; SPOT intensity [26]: 0; SPOT intensity [27]: 0
PPLPRAPPVPPATFE,27,3,2,59,1,0,0,2,4,1,0,0,0,183,0,7,0,0,269,137,SPOT intensity [21]: 2; SPOT intensity [22]: 14; SPOT intensity [23]: 0; SPOT intensity [24]: 0; SPOT intensity [25]: 9; SPOT intensity [26]: 1; SPOT intensity [27]: 1
ISPPASPPPEFDFSK,0,0,0,0,0,0,0,0,0,0,1,0,0,0,0,0,0,0,233,91,SPOT intensity [21]: 0; SPOT intensity [22]: 0; SPOT intensity [23]: 0; SPOT intensity [24]: 0; SPOT intensity [25]: 0; SPOT intensity [26]: 0; SPOT intensity [27]: 0
VPPVPLPFGIPPFPM,25,3,0,2,0,1,2,2,0,8,2,0,0,84,0,6,4,16,341,207,SPOT intensity [21]: 1; SPOT intensity [22]: 129; SPOT intensity [23]: 63; SPOT intensity [24]: 0; SPOT intensity [25]: 6; SPOT intensity [26]: 1; SPOT intensity [27]: 0
VNIPSPSSSPPPIPK,1,0,0,49,0,0,1,1,0,0,0,0,0,0,8,0,0,0,464,529,SPOT intensity [21]: 2; SPOT intensity [22]: 0; SPOT intensity [23]: 0; SPOT intensity [24]: 0; SPOT intensity [25]: 0; SPOT intensity [26]: 0; SPOT intensity [27]: 3
